Experimental data as given in paper PMC11745410.

Target: TAX9-loaded HLA-A*02:01/β2m
Assay: SPR

Row | Substance | fold decrease in KD against TAPBPR^WT (so in the source) [fold]
1 | TAPBPR^∆G24-R36 (G24-R36 deletion) (from UniProt Q9BX59 22-405) (natural protein) | 3
2 | TAPBPR^∆ALAS (A29-S32 deletion) (from UniProt Q9BX59 22-405) (natural protein) | 3
